# Source: patent US20230002480A1
# Key:
# Test in all cases: cell-based or functional assay
# [1] = biological target: HIV-1 Env of pseudovirus 1006_11_C3_1601 (HIV-1)
# [2] = biological target: HIV-1 Env of pseudovirus 211-9 (HIV-1)
# [3] = biological target: HIV-1 Env of pseudovirus 231965.c01 (HIV-1)
# [4] = biological target: HIV-1 Env of pseudovirus 231966.c02 (HIV-1)
# [5] = biological target: HIV-1 Env of pseudovirus 3103.v3.c10 (HIV-1)
# [6] = biological target: HIV-1 Env of pseudovirus 6240_08_TA5_4622 (HIV-1)
# [7] = biological target: HIV-1 Env of pseudovirus 6811.v7.c18 (HIV-1)
# [8] = biological target: HIV-1 Env of pseudovirus 7030102001E5(Rev-) (HIV-1)
# [9] = biological target: HIV-1 Env of pseudovirus 89-F1_2_25 (HIV-1)
# [10] = biological target: HIV-1 Env of pseudovirus 9004SS_A3_4 (HIV-1)
# [11] = biological target: HIV-1 Env of pseudovirus BJOX028000.10.3 (HIV-1)
# [12] = biological target: HIV-1 Env of pseudovirus C4118.c09 (HIV-1)
# [13] = biological target: HIV-1 Env of pseudovirus CNE30 (HIV-1)
# [14] = biological target: HIV-1 Env of pseudovirus CNE53 (HIV-1)
# [15] = biological target: HIV-1 Env of pseudovirus CNE58 (HIV-1)
# [16] = biological target: HIV-1 Env of pseudovirus CNE8 (HIV-1)
# [17] = biological target: HIV-1 Env of pseudovirus Ce0393_C3 (HIV-1)
# [18] = biological target: HIV-1 Env of pseudovirus Ce2010_F5 (HIV-1)
# [19] = biological target: HIV-1 Env of pseudovirus Du156.12 (HIV-1)
# [20] = biological target: HIV-1 Env of pseudovirus Du172.17 (HIV-1)
# [21] = biological target: HIV-1 Env of pseudovirus Du422.1 (HIV-1)
# [22] = biological target: HIV-1 Env of pseudovirus MS208.A1 (HIV-1)
# [23] = biological target: HIV-1 Env of pseudovirus P0402_c2_11 (HIV-1)
# [24] = biological target: HIV-1 Env of pseudovirus R1166.c01 (HIV-1)
# [25] = biological target: HIV-1 Env of pseudovirus REJO4541.67 (HIV-1)
# [26] = biological target: HIV-1 Env of pseudovirus RHPA4259.7 (HIV-1)
# [27] = biological target: HIV-1 Env of pseudovirus SC422661.8 (HIV-1)
# [28] = biological target: HIV-1 Env of pseudovirus THRO4156.18 (HIV-1)
# [29] = biological target: HIV-1 Env of pseudovirus WEAU_d15_410_787 (HIV-1)
# [30] = biological target: HIV-1 Env of pseudovirus X1254_c3 (HIV-1)
# [31] = biological target: HIV-1 Env of pseudovirus X1632_S2_B10 (HIV-1)
# [32] = biological target: HIV-1 Env of pseudovirus ZM214M.PL15 (HIV-1)
# [33] = biological target: MuLV envelope (negative control pseudovirus)
binder,measurement,setting,value
"N49P22 (antibody, V domains shown) V domain 1: HIQLLQSGPQVKKSGDTVRISCETSGYNFVDSRIHWVRQTPEKRLRWMGWINPLQGGVNYAPEFQGRIRMTRDTFIDTVYVDLSGLTPADTAYYYCARGIDGKSYPFHFWGHGTRVTVFS V domain 2: RFALTQPASVSGSPGQTITITCAGGSVSWFHFPPGKTPRLIIYESSKRPSGVSPRFSGSQSGSTASLIISGLQSDDEGTYFCSILEFFGRGTLVTVLS",IC50,[1],0.898 µg/mL
same,IC80,[1],14.7 µg/mL
same,MPI,[1],83
same,IC50,[2],> 50 µg/mL
same,IC80,[2],> 50 µg/mL
same,MPI,[2],18
same,IC50,[3],2.04 µg/mL
same,IC80,[3],35.2 µg/mL
same,MPI,[3],83
same,IC50,[4],3.35 µg/mL
same,IC80,[4],> 50 µg/mL
same,MPI,[4],69
same,IC50,[5],> 50 µg/mL
same,IC80,[5],> 50 µg/mL
same,MPI,[5],16
same,IC50,[6],2.33 µg/mL
same,IC80,[6],9.76 µg/mL
same,MPI,[6],93
same,IC50,[7],1 µg/mL
same,IC80,[7],9.72 µg/mL
same,MPI,[7],92
same,IC50,[8],> 50 µg/mL
same,IC80,[8],> 50 µg/mL
same,MPI,[8],21
same,IC50,[9],> 50 µg/mL
same,IC80,[9],> 50 µg/mL
same,MPI,[9],10
same,IC50,[10],> 50 µg/mL
same,IC80,[10],> 50 µg/mL
same,MPI,[10],42
same,IC50,[11],> 50 µg/mL
same,IC80,[11],> 50 µg/mL
same,MPI,[11],0
same,IC50,[12],1.82 µg/mL
same,IC80,[12],26.6 µg/mL
same,MPI,[12],93
same,IC50,[13],> 50 µg/mL
same,IC80,[13],> 50 µg/mL
same,MPI,[13],30
same,IC50,[14],0.779 µg/mL
same,IC80,[14],5.11 µg/mL
same,MPI,[14],93
same,IC50,[15],28.4 µg/mL
same,IC80,[15],> 50 µg/mL
same,MPI,[15],57
same,IC50,[16],5.35 µg/mL
same,IC80,[16],40.4 µg/mL
same,MPI,[16],86
same,IC50,[17],> 50 µg/mL
same,IC80,[17],> 50 µg/mL
same,MPI,[17],12
same,IC50,[18],2.05 µg/mL
same,IC80,[18],11.7 µg/mL
same,MPI,[18],93
same,IC50,[19],> 50 µg/mL
same,IC80,[19],> 50 µg/mL
same,MPI,[19],4
same,IC50,[20],> 50 µg/mL
same,IC80,[20],> 50 µg/mL
same,MPI,[20],4
same,IC50,[21],> 50 µg/mL
same,IC80,[21],> 50 µg/mL
same,MPI,[21],4
same,IC50,[22],> 50 µg/mL
same,IC80,[22],> 50 µg/mL
same,MPI,[22],17
same,IC50,[23],5.93 µg/mL
same,IC80,[23],> 50 µg/mL
same,MPI,[23],73
same,IC50,[24],0.232 µg/mL
same,IC80,[24],0.799 µg/mL
same,MPI,[24],100
same,IC50,[25],0.792 µg/mL
same,IC80,[25],12.1 µg/mL
same,MPI,[25],84
same,IC50,[26],0.637 µg/mL
same,IC80,[26],5.6 µg/mL
same,MPI,[26],92
same,IC50,[27],0.12 µg/mL
same,IC80,[27],0.544 µg/mL
same,MPI,[27],100
same,IC50,[28],> 50 µg/mL
same,IC80,[28],> 50 µg/mL
same,MPI,[28],32
same,IC50,[29],1.54 µg/mL
same,IC80,[29],> 50 µg/mL
same,MPI,[29],76
same,IC50,[30],3.06 µg/mL
same,IC80,[30],29.8 µg/mL
same,MPI,[30],84
same,IC50,[31],> 50 µg/mL
same,IC80,[31],> 50 µg/mL
same,MPI,[31],0
same,IC50,[32],> 50 µg/mL
same,IC80,[32],> 50 µg/mL
same,MPI,[32],25
same,IC50,[33],> 50 µg/mL
same,IC80,[33],> 50 µg/mL
same,MPI,[33],8
"N49P23 (antibody, V domains shown) VH: QVRLVQSGAGARKTGASMKLSCSTSGYTFTTHHGHFINWVRQARGQGLEWMGWMNPMTGQMNIEGKFQGRVTLTRDIYSDTAYMEMTRLTTGDTGTYYCARGDFGQNYPFHYWGQGSLVIVSS VL: LSALTQPASVSGSPGQSVTISCSGTNRYLVSWYQQHPDKAPKLIIYDDNKRPSGISDRFSASRPDDTASLTISGLQTGDEATYWCASYERFGGGTRLTVLS",IC50,[1],0.015 µg/mL
same,IC80,[1],0.054 µg/mL
same,MPI,[1],100
same,IC50,[2],> 50 µg/mL
same,IC80,[2],> 50 µg/mL
same,MPI,[2],14
same,IC50,[3],> 50 µg/mL
same,IC80,[3],> 50 µg/mL
same,MPI,[3],35
same,IC50,[4],0.035 µg/mL
same,IC80,[4],0.158 µg/mL
same,MPI,[4],100
same,IC50,[5],43.8 µg/mL
same,IC80,[5],> 50 µg/mL
same,MPI,[5],54
same,IC50,[6],0.215 µg/mL
same,IC80,[6],1 µg/mL
same,MPI,[6],100
same,IC50,[7],17.7 µg/mL
same,IC80,[7],> 50 µg/mL
same,MPI,[7],61
same,IC50,[8],0.172 µg/mL
same,IC80,[8],0.797 µg/mL
same,MPI,[8],100
same,IC50,[9],> 50 µg/mL
same,IC80,[9],> 50 µg/mL
same,MPI,[9],5
same,IC50,[10],0.043 µg/mL
same,IC80,[10],0.223 µg/mL
same,MPI,[10],100
same,IC50,[11],0.021 µg/mL
same,IC80,[11],0.123 µg/mL
same,MPI,[11],98
same,IC50,[12],0.026 µg/mL
same,IC80,[12],0.12 µg/mL
same,MPI,[12],100
same,IC50,[13],0.143 µg/mL
same,IC80,[13],0.68 µg/mL
same,MPI,[13],100
same,IC50,[14],0.026 µg/mL
same,IC80,[14],0.095 µg/mL
same,MPI,[14],100
same,IC50,[15],> 50 µg/mL
same,IC80,[15],> 50 µg/mL
same,MPI,[15],9
same,IC50,[16],6.35 µg/mL
same,IC80,[16],47.3 µg/mL
same,MPI,[16],81
same,IC50,[17],> 50 µg/mL
same,IC80,[17],> 50 µg/mL
same,MPI,[17],29
same,IC50,[18],1.59 µg/mL
same,IC80,[18],11.6 µg/mL
same,MPI,[18],91
same,IC50,[19],> 50 µg/mL
same,IC80,[19],> 50 µg/mL
same,MPI,[19],0
same,IC50,[20],> 50 µg/mL
same,IC80,[20],> 50 µg/mL
same,MPI,[20],45
same,IC50,[21],> 50 µg/mL
same,IC80,[21],> 50 µg/mL
same,MPI,[21],4
same,IC50,[22],0.048 µg/mL
same,IC80,[22],0.279 µg/mL
same,MPI,[22],100
same,IC50,[23],0.022 µg/mL
same,IC80,[23],0.065 µg/mL
same,MPI,[23],100
same,IC50,[24],0.123 µg/mL
same,IC80,[24],0.455 µg/mL
same,MPI,[24],100
same,IC50,[25],0.008 µg/mL
same,IC80,[25],0.05 µg/mL
same,MPI,[25],100
same,IC50,[26],0.01 µg/mL
same,IC80,[26],0.04 µg/mL
same,MPI,[26],100
same,IC50,[27],0.069 µg/mL
same,IC80,[27],0.245 µg/mL
same,MPI,[27],100
same,IC50,[28],1.98 µg/mL
same,IC80,[28],10.7 µg/mL
same,MPI,[28],97
same,IC50,[29],0.009 µg/mL
same,IC80,[29],0.031 µg/mL
same,MPI,[29],100
same,IC50,[30],0.022 µg/mL
same,IC80,[30],0.111 µg/mL
same,MPI,[30],100
same,IC50,[31],0.13 µg/mL
same,IC80,[31],> 50 µg/mL
same,MPI,[31],62
same,IC50,[32],0.061 µg/mL
same,IC80,[32],0.614 µg/mL
same,MPI,[32],100
same,IC50,[33],> 50 µg/mL
same,IC80,[33],> 50 µg/mL
same,MPI,[33],9
